Measured values: patent publication US20220169679A1 (THAI UNION GROUP PUBLIC, published 2022)
Where “and” joins values, the source holds several entries; their conditions need not be identical. Identical values can stand only once.

Biological target: angiotensin I-converting enzyme (ACE)
Assay: cell-based or functional assay

With NLLPHR [NLLPHR (SEQ ID NO: 3)] the “IC50 of ACE inhibitory activity” value was 0.93 µg/ml and 1.24 µM.
With VIYSRINCR [VIYSRINCR (SEQ ID NO: 5)] the “IC50 of ACE inhibitory activity” value was 0.27 µg/ml and 0.24 µM.
For VSVVQYSR [VSVVQYSR (SEQ ID NO: 4)], the “IC50 of ACE inhibitory activity” value was 0.89 µg/ml and 0.95 µM.

Biological target: angiotensin I-converting enzyme (ACE)
Assay: cell-based or functional assay
Remark: another data set of the same source

In order of falling “ACE inhibition (%) at 1 mg/ml” value:
1. VIYSRINCR [VIYSRINCR (SEQ ID NO: 5)]  97%
2. NLLPHR [NLLPHR (SEQ ID NO: 3)]  94.9%
3. VSVVQYSR [VSVVQYSR (SEQ ID NO: 4)]  94.2%
4. FDQFLPIH [FDQFLPIH (SEQ ID NO: 20)]  88.4%
5. GPLYHS [GPLYHS (SEQ ID NO: 13)]  85.8%
6. APPHIF [APPHIF (SEQ ID NO: 23)]  82%
7. LLHAKPLN [LLHAKPLN (SEQ ID NO: 28)]  79%
8. SFLMRK [SFLMRK (SEQ ID NO: 15)]  77.7%
9. LPPGKIV [LPPGKIV (SEQ ID NO: 18)]  71.7%
10. GVPGIHGS [… (SEQ ID NO: 31)]  70.6%
11. WTIHTP [WTIHTP (SEQ ID NO: 17)]  68%
12. VLMSQVFKQT [VLMSQVFKQT (SEQ ID NO: 16)]  55.1%
13. MTGLPGPTGP [MTGLPGPTGP (SEQ ID NO: 33)]  49%
14. IFERL [IFERL (SEQ ID NO: 19)]  45.3%
15. VQSVPAT [VQSVPAT (SEQ ID NO: 26)]  36.9%
16. LIHAIL [LIHAIL (SEQ ID NO: 14)]  33.4%
17. LLDHRANL [LLDHRANL (SEQ ID NO: 22)]  29.2%
18. HFAASGK [HFAASGK (SEQ ID NO: 24)]  27%
19. NGPSGQTG [NGPSGQTG (SEQ ID NO: 21)]  25.9%
20. IKVGGERF [IKVGGERF (SEQ ID NO: 29)]  24.3%
21. KKLEKKTT [KKLEKKTT (SEQ ID NO: 30)]  21.5%
22. VEWKERATE [VEWKERATE (SEQ ID NO: 27)]  15.5%
23. QGPPGNPG [QGPPGNPG (SEQ ID NO: 32)]  2.91%
24. LEQVSAGTT [LEQVSAGTT (SEQ ID NO: 25)]  1.9%

Biological target: angiotensin I-converting enzyme (ACE)
Assay: cell-based or functional assay
Remark: another data set of the same source

In order of falling “ACE inhibitory activity (%) at 1 mg/ml” value:
1. INCR [INCR (SEQ ID NO: 7)]  101%
2. SRINCR [SRINCR (SEQ ID NO: 8)]  98.8%
3. VIYSR [VIYSR (SEQ ID NO: 6)]  97.8%
4. VIY  18.5%

In order of rising “ACE inhibitory activity (%) at 1 µg/ml” value:
1. VIYSR [VIYSR (SEQ ID NO: 6)]  12.1%
2. SRINCR [SRINCR (SEQ ID NO: 8)]  27.5%
3. INCR [INCR (SEQ ID NO: 7)]  29.1%
